T1: FcγRIIa H (FcγRIIa, type H allotype, His at position 131), extracellular domain with C-terminal His tag (human, UniProt P12318 34-217)
T1 construct: extracellular domain; Soluble receptor expressed in FreeStyle293 cells; analyte in Biacore; also called FcgRIIa H; 2aH; not shown: C-terminal His tag
T1 sequence (looked up): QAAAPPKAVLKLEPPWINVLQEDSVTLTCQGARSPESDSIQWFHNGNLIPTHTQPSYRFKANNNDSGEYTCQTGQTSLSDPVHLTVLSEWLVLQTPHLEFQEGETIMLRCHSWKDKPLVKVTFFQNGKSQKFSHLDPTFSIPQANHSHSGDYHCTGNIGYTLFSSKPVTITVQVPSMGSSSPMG

T2: FcγRIIb, extracellular domain with C-terminal His tag (human, UniProt P31994 43-217)
T2 construct: extracellular domain; Soluble receptor expressed in FreeStyle293 cells; analyte in Biacore; also called FcgRIIb; 2b; not shown: C-terminal His tag
T2 sequence (looked up): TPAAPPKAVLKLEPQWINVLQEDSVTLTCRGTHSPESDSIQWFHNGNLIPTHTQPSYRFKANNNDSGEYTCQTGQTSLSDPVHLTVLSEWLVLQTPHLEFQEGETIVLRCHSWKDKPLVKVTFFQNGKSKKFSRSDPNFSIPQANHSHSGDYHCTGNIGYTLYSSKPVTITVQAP

B1: GpH7-A5/GpH7-B3 variant D270_07I/GpL16-k0 (antibody, human IgG1, kappa)
heavy 1: not shown
heavy 2: not shown
light: DIVMTQSPLSLPVTPGEPASISCQASESLVHSNRNTYLHWYLQKPGQSPQLLIYKVSNRFSGVPDRFSGSGSGTDFTLKISRVEAEDVGVYYCSQNTHVPPTFGQGTKVEIERTVAAPSVFIFPPSDEQLKSGTASVVCLLNNFYPREAKVQWKVDNALQSGNSQESVTEQDSKDSTYSLSSTLTLSKADYEKHKVYACEVTHQGLSSPVTKSFNRGEC
notes: Heterodimerized IgG1; mutation only in the GpH7-B3 chain; also called He Ab
B2: GpH7-A5/GpH7-B3 variant S337_09D/GpL16-k0 (antibody, human IgG1, kappa)
heavy 1: not shown
heavy 2: not shown
light: B1 light
notes: heterodimerized IgG1, mutation in one H chain only; also called He Ab
B3: GpH7-A5/GpH7-B3 variant K334_15Y/GpL16-k0 (antibody, human IgG1, kappa)
heavy 1: not shown
heavy 2: not shown
light: B1 light
notes: as for B2
B4: GpH7-A5/GpH7-B3 variant Q295_02A/GpL16-k0 (antibody, human IgG1, kappa)
heavy 1: not shown
heavy 2: not shown
light: B1 light
notes: as for B2
B5: GpH7-A5/GpH7-B3 variant K334_16H/GpL16-k0 (antibody, human IgG1, kappa)
heavy 1: not shown
heavy 2: not shown
light: B1 light
notes: as for B2
B6: GpH7-A5/GpH7-B3 variant K334_19Q/GpL16-k0 (antibody, human IgG1, kappa)
heavy 1: not shown
heavy 2: not shown
light: B1 light
notes: as for B2
B7: GpH7-A5/GpH7-B3 variant S337_18N/GpL16-k0 (antibody, human IgG1, kappa)
heavy 1: not shown
heavy 2: not shown
light: B1 light
notes: as for B2
B8: GpH7-A5/GpH7-B3 variant S239_09D/GpL16-k0 (antibody, human IgG1, kappa)
heavy 1: not shown
heavy 2: not shown
light: B1 light
notes: as for B2
B9: GpH7-A5/GpH7-B3 variant Q295_14T/GpL16-k0 (antibody, human IgG1, kappa)
heavy 1: not shown
heavy 2: not shown
light: B1 light
notes: as for B2
B10: GpH7-A5/GpH7-B3 variant S298_14T/GpL16-k0 (antibody, human IgG1, kappa)
heavy 1: not shown
heavy 2: not shown
light: B1 light
notes: as for B2
B11: GpH7-A5/GpH7-B3 variant S267_09D/GpL16-k0 (antibody, human IgG1, kappa)
heavy 1: not shown
heavy 2: not shown
light: B1 light
notes: as for B2
B12: GpH7-A5/GpH7-B3 variant Q295_10E/GpL16-k0 (antibody, human IgG1, kappa)
heavy 1: not shown
heavy 2: not shown
light: B1 light
notes: as for B2
B13: GpH7-A5/GpH7-B3 variant S267_02A/GpL16-k0 (antibody, human IgG1, kappa)
heavy 1: not shown
heavy 2: not shown
light: B1 light
notes: as for B2
B14: GpH7-A5/GpH7-B3 variant T335_10E/GpL16-k0 (antibody, human IgG1, kappa)
heavy 1: not shown
heavy 2: not shown
light: B1 light
notes: as for B2
B15: GpH7-A5/GpH7-B3 variant K334_13S/GpL16-k0 (antibody, human IgG1, kappa)
heavy 1: not shown
heavy 2: not shown
light: B1 light
notes: as for B2
B16: GpH7-A5/GpH7-B3 variant K334_18N/GpL16-k0 (antibody, human IgG1, kappa)
heavy 1: not shown
heavy 2: not shown
light: B1 light
notes: as for B2
B17: GpH7-A5/GpH7-B3 variant T335_07I/GpL16-k0 (antibody, human IgG1, kappa)
heavy 1: not shown
heavy 2: not shown
light: B1 light
notes: as for B2
B18: GpH7-A5/GpH7-B3 variant S337_10E/GpL16-k0 (antibody, human IgG1, kappa)
heavy 1: not shown
heavy 2: not shown
light: B1 light
notes: as for B2
B19: GpH7-A5/GpH7-B3 variant K334_14T/GpL16-k0 (antibody, human IgG1, kappa)
heavy 1: not shown
heavy 2: not shown
light: B1 light
notes: as for B2

Molecular target: T1, FcγRIIa H (FcγRIIa, type H allotype, …)
Experiment: ratio of He/Con_2aH to He/Con_2b (FcγRIIa H over FcγRIIb), SPR

He_2aH/2b (IIaH/IIb)	Binder
1.54	B1

Molecular target: T1, FcγRIIa H (FcγRIIa, type H allotype, …)
Experiment: SPR (Biacore), captured antibody, FcγR as analyte

He/Con_2aH	Binder
64 relative, GpH7-A5/GpH7-B3/GpL16-k0 = 100	B1

Molecular target: T2, FcγRIIb, extracellular domain with …
Experiment: SPR (Biacore), captured antibody, FcγR as analyte

He/Con_2b	Binder
41.5 relative, GpH7-A5/GpH7-B3/GpL16-k0 = 100	B1

Molecular target: T3, FcγRIIIa extracellular domain with C-terminal His tag (human, UniProt P08637 17-208)
T3 construct: extracellular domain; also called FcgRIIIa; 3a
T3 sequence (P08637 17-208): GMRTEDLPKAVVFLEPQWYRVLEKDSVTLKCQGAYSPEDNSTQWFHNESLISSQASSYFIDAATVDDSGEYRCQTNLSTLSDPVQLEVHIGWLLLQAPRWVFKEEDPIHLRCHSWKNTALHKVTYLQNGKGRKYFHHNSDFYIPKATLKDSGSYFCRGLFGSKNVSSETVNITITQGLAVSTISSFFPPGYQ
Experiment: SPR, relative to GpH7-A5/GpH7-B3/GpL16-k0

He/Con_3a	Binder
110 % of control (=100)	B2
141 % of control (=100)	B3
106 % of control (=100)	B4
134 % of control (=100)	B5
136 % of control (=100)	B6
104 % of control (=100)	B7
166 % of control (=100)	B8
115 % of control (=100)	B9
113 % of control (=100)	B10
181 % of control (=100)	B11
100 % of control (=100)	B12
150 % of control (=100)	B13
107 % of control (=100)	B14
145 % of control (=100)	B15
136 % of control (=100)	B16
107 % of control (=100)	B17
105 % of control (=100)	B18
141 % of control (=100)	B19
